Results from US7595168B2, “Method of screening for substances useful for transdifferentiation of microglia into neurons” (Eisai R&D Management Co., Ltd., priority 2006, dated 2009).

Test system: microglia
Assay: Action of BMP on transdifferentiation of microglia into neurons; immunocytochemical marker quantification
Type: cell-based, rat
Details: day 5 after enrichment; 100 ng/ml noggin in medium containing 70% FCS, 2 days
Procedure: The cerebral cortex was isolated from newborn Wistar rats aged from 0 to 1 day (obtained from Shimizu Experimental Material Co. Ltd.) and cultured in an Eagle's minimum essential medium (EMEM) supplemented with 10% fetal calf serum (FCS) and […] insulin at 37° C. in an atmosphere of 5% CO2. After 14 to 16 days of incubation, microglia were isolated and prepared by the enriching procedure.
The cells were fixed with 4% paraformaldehyde and then reacted individually with an anti-CD11b antibody ([…], Chemicon International) or an anti-MAP2 antibody ([…], DakoCytomation) as a primary antibody and with Cy2-conjugated goat anti-mouse IgG (H+L) (Jackson ImmunoResearch) or Cy3-conjugated goat anti-rabbit IgG (H+L) (Jackson ImmunoResearch) as a secondary antibody. The CD11b is a marker for microglia and the MAP2 is a marker for neurons. […]
After immunostaining the cells, images (200× magnification) of 8 fields per case were randomly obtained using a fluorescent microscope and MataMorph software (Molecular Devices). The numbers of cells expressing individual markers were counted and the average rates to the total number of cells were used as data. […]
Quantification was carried out in the same manner as in Example 1.

B1: noggin: a BMP inhibitor (N6784), Sigma (protein, UniProt Q13253 28-232, looked up)
Noggin: QHYLHIRPAPSDNLPLVDLIEHPDPIFDPKEKDLNETLLRSLLGGHYDPGFMATSPPEDRPGGGGGAAGGAEDLAELDQLLRQRPSGAMPSEIKGLEFSEGLAQGKKQRLSKKLRRKLQMWLWSQTFCPVLYAWNDLGSRFWPRYVKVGSCFSKRSCSVPEGMVCKPSKSVHLTVLRWRCQRRGGQRCGWIPIQYPIISECKCSC
  effect on transdifferentiation of microglia into neurons by 70% serum: this transdifferentiation was suppressed
